± gives the uncertainty stated by the source.
Assay: abundance fitness (aPCA) (normalised: wild type 0, dead -1); higher = more abundant; growth selection in yeast, the domain comes from the species named
Conditions: Homo sapiens

Substance	abundance fitness
Scaffold attachment factor B1 E80V, Q15424	-0.223 ± 0.059
Scaffold attachment factor B1 V48F, Q15424	-0.157 ± 0.085
Scaffold attachment factor B1 I77F, Q15424	-0.076 ± 0.058
Scaffold attachment factor B1 E80R, Q15424	-0.443 ± 0.092
Scaffold attachment factor B1 K63D, Q15424	-0.255 ± 0.094
Scaffold attachment factor B1 D49P, Q15424	-0.285 ± 0.068
Scaffold attachment factor B1 L34P, Q15424	-0.619 ± 0.074
Scaffold attachment factor B1 D67L, Q15424	-0.278 ± 0.052
Scaffold attachment factor B1 L31A, Q15424	-0.333 ± 0.069
Scaffold attachment factor B1 D73N, Q15424	-0.091 ± 0.097
Scaffold attachment factor B1 R40I, Q15424	-0.179 ± 0.07
Scaffold attachment factor B1 S51Q, Q15424	-0.271 ± 0.079
Scaffold attachment factor B1 T28G, Q15424	-0.337 ± 0.055
Scaffold attachment factor B1 R44E, Q15424	-0.121 ± 0.091
Scaffold attachment factor B1 N47I, Q15424	-0.822 ± 0.09
Scaffold attachment factor B1 K54C, Q15424	-0.361 ± 0.063
Scaffold attachment factor B1 K54A, Q15424	-0.181 ± 0.061
Scaffold attachment factor B1 D38P, Q15424	-0.899 ± 0.057
Scaffold attachment factor B1 L61D, Q15424	-0.615 ± 0.086
Scaffold attachment factor B1 R40L, Q15424	-0.219 ± 0.055
Scaffold attachment factor B1 R40D, Q15424	-0.642 ± 0.096
Scaffold attachment factor B1 E66H, Q15424	-0.49 ± 0.075

Substance	abundance fitness
Scaffold attachment factor B1 D33L, Q15424	-0.437 ± 0.06
Scaffold attachment factor B1 N47Y, Q15424	-0.483 ± 0.088
Scaffold attachment factor B1 M58R, Q15424	-0.205 ± 0.059
Scaffold attachment factor B1 D38I, Q15424	-0.767 ± 0.11
Scaffold attachment factor B1 V48C, Q15424	-0.133 ± 0.07
Scaffold attachment factor B1 S50A, Q15424	-0.2 ± 0.062
Scaffold attachment factor B1 R35T, Q15424	0.014 ± 0.064
Scaffold attachment factor B1 V48M, Q15424	-0.083 ± 0.082
Scaffold attachment factor B1 R60A, Q15424	-0.22 ± 0.054
Scaffold attachment factor B1 A41G, Q15424	-0.095 ± 0.063
Scaffold attachment factor B1 R60D, Q15424	-0.659 ± 0.13
Scaffold attachment factor B1 T78V, Q15424	-0.133 ± 0.07
Scaffold attachment factor B1 A64W, Q15424	-0.249 ± 0.062
Scaffold attachment factor B1 E76Q, Q15424	-0.415 ± 0.088
Scaffold attachment factor B1 S50Q, Q15424	-0.166 ± 0.086
Scaffold attachment factor B1 S55E, Q15424	-0.092 ± 0.069
Scaffold attachment factor B1 K63W, Q15424	-0.398 ± 0.057
Scaffold attachment factor B1 T26M, Q15424	-0.213 ± 0.12
Scaffold attachment factor B1 D33G, Q15424	-0.281 ± 0.053
Scaffold attachment factor B1 K63M, Q15424	-0.43 ± 0.07
Scaffold attachment factor B1 T26W, Q15424	-0.355 ± 0.075
Scaffold attachment factor B1 L31R, Q15424	-0.509 ± 0.051

Substance	abundance fitness
Scaffold attachment factor B1 V56E, Q15424	-0.15 ± 0.078
Scaffold attachment factor B1 T78Q, Q15424	-0.173 ± 0.074
Scaffold attachment factor B1 G27R, Q15424	-0.327 ± 0.052
Scaffold attachment factor B1 K63Q, Q15424	-0.085 ± 0.079
Scaffold attachment factor B1 T78F, Q15424	-0.323 ± 0.1
Scaffold attachment factor B1 T28Y, Q15424	-0.073 ± 0.068
Scaffold attachment factor B1 R35W, Q15424	-0.645 ± 0.079
Scaffold attachment factor B1 S32C, Q15424	-0.32 ± 0.077
Scaffold attachment factor B1 G52D, Q15424	-0.691 ± 0.084
Scaffold attachment factor B1 D67V, Q15424	-0.19 ± 0.063
Scaffold attachment factor B1 D33T, Q15424	-0.308 ± 0.077
Scaffold attachment factor B1 R35S, Q15424	-0.136 ± 0.068
Scaffold attachment factor B1 T78R, Q15424	-0.123 ± 0.055
Scaffold attachment factor B1 N53H, Q15424	-0.127 ± 0.071
Scaffold attachment factor B1 N47W, Q15424	-0.593 ± 0.079
Scaffold attachment factor B1 E59R, Q15424	-0.078 ± 0.074
Scaffold attachment factor B1 E74R, Q15424	-0.074 ± 0.051
Scaffold attachment factor B1 L43C, Q15424	-0.123 ± 0.068
Scaffold attachment factor B1 L61I, Q15424	-0.614 ± 0.12
Scaffold attachment factor B1 T78W, Q15424	-0.279 ± 0.065
Scaffold attachment factor B1 R35M, Q15424	-0.147 ± 0.072
Scaffold attachment factor B1 L34E, Q15424	-0.719 ± 0.084

Substance	abundance fitness
Scaffold attachment factor B1 I75G, Q15424	-0.264 ± 0.057
Scaffold attachment factor B1 S32E, Q15424	-0.419 ± 0.11
Scaffold attachment factor B1 G52Y, Q15424	-1.15 ± 0.11
Scaffold attachment factor B1 R40N, Q15424	-0.786 ± 0.12
Scaffold attachment factor B1 L39Y, Q15424	-0.824 ± 0.093
Scaffold attachment factor B1 N47E, Q15424	-0.168 ± 0.074
Scaffold attachment factor B1 E42R, Q15424	-0.903 ± 0.053
Scaffold attachment factor B1 G52W, Q15424	-1.2 ± 0.073
Scaffold attachment factor B1 T78M, Q15424	-0.356 ± 0.086
Scaffold attachment factor B1 S51R, Q15424	-0.141 ± 0.076
Scaffold attachment factor B1 A64M, Q15424	-0.416 ± 0.1
Scaffold attachment factor B1 S50T, Q15424	-0.312 ± 0.093
Scaffold attachment factor B1 L34M, Q15424	-0.067 ± 0.083
Scaffold attachment factor B1 D49S, Q15424	-0.219 ± 0.062
Scaffold attachment factor B1 K62V, Q15424	-0.246 ± 0.052
Scaffold attachment factor B1 R30M, Q15424	-0.206 ± 0.077
Scaffold attachment factor B1 G69L, Q15424	-0.558 ± 0.049
Scaffold attachment factor B1 S79C, Q15424	-0.286 ± 0.077
Scaffold attachment factor B1 V36E, Q15424	-0.381 ± 0.078
Scaffold attachment factor B1 D67H, Q15424	-0.333 ± 0.051
Scaffold attachment factor B1 A64T, Q15424	-0.125 ± 0.078
Scaffold attachment factor B1 D49A, Q15424	-0.329 ± 0.071

Substance	abundance fitness
Scaffold attachment factor B1 L39N, Q15424	-0.87 ± 0.066
Scaffold attachment factor B1 D73P, Q15424	-0.278 ± 0.068
Scaffold attachment factor B1 D49Y, Q15424	-0.5 ± 0.057
Scaffold attachment factor B1 V48W, Q15424	-0.281 ± 0.062
Scaffold attachment factor B1 V36H, Q15424	-0.409 ± 0.098
Scaffold attachment factor B1 T28P, Q15424	-0.348 ± 0.07
Scaffold attachment factor B1 L57W, Q15424	-1.37 ± 0.1
Scaffold attachment factor B1 S79Q, Q15424	-0.443 ± 0.11
Scaffold attachment factor B1 K54N, Q15424	-0.444 ± 0.075
Scaffold attachment factor B1 S50C, Q15424	-0.226 ± 0.072
Scaffold attachment factor B1 N47R, Q15424	-0.207 ± 0.065
Scaffold attachment factor B1 R60L, Q15424	-0.335 ± 0.053
Scaffold attachment factor B1 S51E, Q15424	-0.247 ± 0.078
Scaffold attachment factor B1 L31Y, Q15424	-0.471 ± 0.07
Scaffold attachment factor B1 G70M, Q15424	-0.307 ± 0.064
Scaffold attachment factor B1 N47H, Q15424	-0.349 ± 0.076
Scaffold attachment factor B1 E76R, Q15424	-0.055 ± 0.054
Scaffold attachment factor B1 V56H, Q15424	-0.226 ± 0.076
Scaffold attachment factor B1 L57A, Q15424	-0.462 ± 0.062
Scaffold attachment factor B1 E59L, Q15424	-0.15 ± 0.052
Scaffold attachment factor B1 I77S, Q15424	-0.08 ± 0.051
Scaffold attachment factor B1 S50W, Q15424	-0.226 ± 0.068
